{"source": "patent US20260258117A1", "about": "(ACADEMISCH ZIEKENHUIS LEIDEN H O D N LUMC, published 2026)", "binders": {"B1": {"name": "Anti-FH F405L LALAPG, Anti-biotin K409R LALAPG (bispecific antibody, human IgG1, kappa, L234A L235A)", "heavy 1": "EVQLQQSGPELVKPGASVKISCKASGYSFTGYFIHWVKQSHVKSLEWFGRINPYNGATDYNQNFKDKAILTIDESSSTAYMEIHSLTSDDSAVYYCARGLFLDYWGQGTTLTVSSASTKGPSVFPLAPSSKSTSGGTAALGCLVKDYFPEPVTVSWNSGALTSGVHTFPAVLQSSGLYSLSSVVTVPSSSLGTQTYICNVNHKPSNTKVDKRVEPKSCDKTHTCPPCPAPEAAGGPSVFLFPPKPKDTLMISRTPEVTCVVVDVSHEDPEVKFNWYVDGVEVHNAKTKPREEQYNSTYRVVSVLTVLHQDWLNGKEYKCKVSNKALGAPIEKTISKAKGQPREPQVYTLPPSREEMTKNQVSLTCLVKGFYPSDIAVEWESNGQPENNYKTTPPVLDSDGSFLLYSKLTVDKSRWQQGNVFSCSVMHEALHNHYTQKSLSLSPGK", "light 1": "DILMTQSPSSMSVSLGDTVSITCHASQGITSNIGWLQQKPGKSFKGLIYHGTNLEDGVPSRFSGSGSGADYSLTISSLESEDFADYYCVQYAQFPWTFGGGTKLEIKRTVAAPSVFIFPPSDEQLKSGTASVVCLLNNFYPREAKVQWKVDNALQSGNSQESVTEQDSKDSTYSLSSTLTLSKADYEKHKVYACEVTHQGLSSPVTKSFNRGEC", "heavy 2": "QVKLQESGPGLVAPSQSLSITCTVSGFSLTAYGVDWVRQPPGKGLEWLGVIWGGGRTNYNSGLMSRLSIRKDNSKSQVFLTMNSLQTDDTAKYYCVKHTNWDGGFAYWGQGTTVTVSSASTKGPSVFPLAPSSKSTSGGTAALGCLVKDYFPEPVTVSWNSGALTSGVHTFPAVLQSSGLYSLSSVVTVPSSSLGTQTYICNVNHKPSNTKVDKRVEPKSCDKTHTCPPCPAPEAAGGPSVFLFPPKPKDTLMISRTPEVTCVVVDVSHEDPEVKFNWYVDGVEVHNAKTKPREEQYNSTYRVVSVLTVLHQDWLNGKEYKCKVSNKALGAPIEKTISKAKGQPREPQVYTLPPSREEMTKNQVSLTCLVKGFYPSDIAVEWESNGQPENNYKTTPPVLDSDGSFFLYSRLTVDKSRWQQGNVFSCSVMHEALHNHYTQKSLSLSPGK", "light 2": "DVVMTQSPLSLPVSLGDQASISCRSGQGLVYSNGDTYLHWYLQKPGQSPKLLIYKVSNRFSGVPDRFSGSGSGTDFTLKISRVEAEDLGVYFCSQSTHFPFTFGSGTKLEIKRTVAAPSVFIFPPSDEQLKSGTASVVCLLNNFYPREAKVQWKVDNALQSGNSQESVTEQDSKDSTYSLSSTLTLSKADYEKHKVYACEVTHQGLSSPVTKSFNRGEC", "notes": "Made by controlled Fab-arm exchange; also called anti-FH x anti-biotin"}, "B2": {"name": "Anti-C4BP F405L LALAPG, Anti-DNP K409R LALAPG (bispecific antibody, human IgG1, kappa, L234A L235A)", "heavy 1": "EVQLVESGGGLVKPGGSLKLSCAVSGFIFSDYYMYWVRQTPEKRLEWVATISDGGVYTYYPDSMKGRFTISRDNAKNNLYLQMSSLKSEDTAMYYCVRGDYYGNSLDYWGQGTSVTVSSASTKGPSVFPLAPSSKSTSGGTAALGCLVKDYFPEPVTVSWNSGALTSGVHTFPAVLQSSGLYSLSSVVTVPSSSLGTQTYICNVNHKPSNTKVDKRVEPKSCDKTHTCPPCPAPEAAGGPSVFLFPPKPKDTLMISRTPEVTCVVVDVSHEDPEVKFNWYVDGVEVHNAKTKPREEQYNSTYRVVSVLTVLHQDWLNGKEYKCKVSNKALGAPIEKTISKAKGQPREPQVYTLPPSREEMTKNQVSLTCLVKGFYPSDIAVEWESNGQPENNYKTTPPVLDSDGSFLLYSKLTVDKSRWQQGNVFSCSVMHEALHNHYTQKSLSLSPGK", "light 1": "DVVMTQTPLTLSITIGQPASISCKSSQSLLDGDGKTYLNWLLQRPGQSPKRLIYLVSKLDSGVPDRFTGSGSGTDFTLKISRVEAEDLGVYYCCQGTHFPWTFGRGTKLEIKRTVAAPSVFIFPPSDEQLKSGTASVVCLLNNFYPREAKVQWKVDNALQSGNSQESVTEQDSKDSTYSLSSTLTLSKADYEKHKVYACEVTHQGLSSPVTKSFNRGEC", "heavy 2": "DVRLQESGPGLVKPSQSLSLTCSVTGYSITNSYYWNWIRQFPGNKLEWMVYIGYDGSNNYNPSLKNRISITRDTSKNQFFLKLNSVTTEDTATYYCARATYYGNYRGFAYWGQGTLVTVSAASTKGPSVFPLAPSSKSTSGGTAALGCLVKDYFPEPVTVSWNSGALTSGVHTFPAVLQSSGLYSLSSVVTVPSSSLGTQTYICNVNHKPSNTKVDKRVEPKSCDKTHTCPPCPAPEAAGGPSVFLFPPKPKDTLMISRTPEVTCVVVDVSHEDPEVKFNWYVDGVEVHNAKTKPREEQYNSTYRVVSVLTVLHQDWLNGKEYKCKVSNKALGAPIEKTISKAKGQPREPQVYTLPPSREEMTKNQVSLTCLVKGFYPSDIAVEWESNGQPENNYKTTPPVLDSDGSFFLYSRLTVDKSRWQQGNVFSCSVMHEALHNHYTQKSLSLSPGK", "light 2": "DIRMTQTTSSLSASLGDRVTISCRASQDISNYLNWYQQKPDGTVKLLIYYTSRLHSGVPSRFSGSGSGTDYSLTISNLEQEDIATYFCQQGNTLPWTFGGGTKLEIKRTVAAPSVFIFPPSDEQLKSGTASVVCLLNNFYPREAKVQWKVDNALQSGNSQESVTEQDSKDSTYSLSSTLTLSKADYEKHKVYACEVTHQGLSSPVTKSFNRGEC", "notes": "Made by controlled Fab-arm exchange; also called anti-C4BP x anti-DNP"}, "B3": {"name": "Anti-DNP K409R LALAPG (antibody, human IgG1, kappa, L234A L235A, V domains shown)", "VH": "DVRLQESGPGLVKPSQSLSLTCSVTGYSITNSYYWNWIRQFPGNKLEWMVYIGYDGSNNYNPSLKNRISITRDTSKNQFFLKLNSVTTEDTATYYCARATYYGNYRGFAYWGQGTLVTVSA", "VL": "DIRMTQTTSSLSASLGDRVTISCRASQDISNYLNWYQQKPDGTVKLLIYYTSRLHSGVPSRFSGSGSGTDYSLTISNLEQEDIATYFCQQGNTLPWTFGGGTKLEIKR", "notes": "also called anti-DNP parental Ab; parental monospecific antibody"}}, "key": {"[1]": {"target": "T1, Complement Factor H protein (human, UniProt P08603 19-1231)", "T1 construct": "Plasma protein, bought purified or present in normal human serum; also called FH; CFH", "T1 sequence (P08603 19-1231 limits assumed)": "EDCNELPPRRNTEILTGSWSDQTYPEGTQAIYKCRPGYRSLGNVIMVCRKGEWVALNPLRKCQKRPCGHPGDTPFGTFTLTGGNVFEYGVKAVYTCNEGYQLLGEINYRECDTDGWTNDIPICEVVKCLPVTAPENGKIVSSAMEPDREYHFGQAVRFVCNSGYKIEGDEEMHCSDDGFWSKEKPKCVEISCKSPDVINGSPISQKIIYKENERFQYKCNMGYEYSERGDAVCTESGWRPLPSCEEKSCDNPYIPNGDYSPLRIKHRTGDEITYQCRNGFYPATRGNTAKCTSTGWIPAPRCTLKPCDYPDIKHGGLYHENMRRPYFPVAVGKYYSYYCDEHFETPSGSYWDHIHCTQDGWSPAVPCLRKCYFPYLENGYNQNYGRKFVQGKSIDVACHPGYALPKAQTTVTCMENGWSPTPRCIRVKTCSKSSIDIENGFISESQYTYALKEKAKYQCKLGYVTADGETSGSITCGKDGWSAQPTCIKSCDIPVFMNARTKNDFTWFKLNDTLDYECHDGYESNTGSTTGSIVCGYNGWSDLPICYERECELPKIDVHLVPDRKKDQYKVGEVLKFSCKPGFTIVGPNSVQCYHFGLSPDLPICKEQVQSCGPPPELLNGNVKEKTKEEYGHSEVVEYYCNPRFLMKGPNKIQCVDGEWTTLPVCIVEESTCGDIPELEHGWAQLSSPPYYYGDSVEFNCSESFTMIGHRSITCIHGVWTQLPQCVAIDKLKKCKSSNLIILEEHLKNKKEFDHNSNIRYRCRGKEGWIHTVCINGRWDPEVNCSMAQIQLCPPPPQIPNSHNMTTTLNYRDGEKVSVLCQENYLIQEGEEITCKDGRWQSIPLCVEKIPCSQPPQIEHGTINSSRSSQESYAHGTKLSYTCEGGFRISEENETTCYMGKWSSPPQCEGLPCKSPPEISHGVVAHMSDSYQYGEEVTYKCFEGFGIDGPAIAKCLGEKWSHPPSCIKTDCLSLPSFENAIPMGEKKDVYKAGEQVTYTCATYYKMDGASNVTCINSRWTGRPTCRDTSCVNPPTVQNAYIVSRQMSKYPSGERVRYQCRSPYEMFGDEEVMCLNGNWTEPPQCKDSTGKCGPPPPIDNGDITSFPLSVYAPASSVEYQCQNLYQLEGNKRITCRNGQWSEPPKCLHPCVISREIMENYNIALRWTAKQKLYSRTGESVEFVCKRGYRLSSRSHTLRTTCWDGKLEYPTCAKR", "experiment": "bispecific ELISA and complement activation assay on biotinylated BSA-DNP, FH detected"}, "[2]": {"target": "T2, C4b-binding protein (human, UniProt P04003 49-597; P20851 18-252)", "T2 construct": "also called C4BP", "T2 sequence (looked up) 1": "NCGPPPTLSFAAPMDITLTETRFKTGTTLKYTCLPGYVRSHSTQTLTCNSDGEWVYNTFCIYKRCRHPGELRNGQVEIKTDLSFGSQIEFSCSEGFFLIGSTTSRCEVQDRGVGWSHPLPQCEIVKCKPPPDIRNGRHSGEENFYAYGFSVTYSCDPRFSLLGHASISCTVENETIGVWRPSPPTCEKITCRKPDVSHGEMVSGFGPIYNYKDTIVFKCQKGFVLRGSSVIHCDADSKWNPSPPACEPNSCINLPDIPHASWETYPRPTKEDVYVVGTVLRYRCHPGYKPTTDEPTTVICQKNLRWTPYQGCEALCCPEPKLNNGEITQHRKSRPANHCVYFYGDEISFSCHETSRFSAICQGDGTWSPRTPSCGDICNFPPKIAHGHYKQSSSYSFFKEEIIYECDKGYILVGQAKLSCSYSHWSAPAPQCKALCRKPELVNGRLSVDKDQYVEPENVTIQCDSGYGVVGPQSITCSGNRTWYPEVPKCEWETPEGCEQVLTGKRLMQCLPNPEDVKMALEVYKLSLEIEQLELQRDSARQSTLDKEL", "T2 sequence (looked up) 2": "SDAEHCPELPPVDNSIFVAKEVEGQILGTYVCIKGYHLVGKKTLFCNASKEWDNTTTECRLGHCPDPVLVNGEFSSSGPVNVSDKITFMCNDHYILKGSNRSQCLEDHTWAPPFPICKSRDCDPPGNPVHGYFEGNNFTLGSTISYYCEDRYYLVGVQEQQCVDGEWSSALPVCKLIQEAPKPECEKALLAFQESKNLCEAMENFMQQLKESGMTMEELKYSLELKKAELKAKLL", "experiment": "bispecific ELISA", "experimental": "(§1) BsAbs were tested for binding to both antigens in a bispecific ELISA. MaxiSorp plates (Thermo Scientific, Nunc, 430341) were coated with 50 μL/well BSA-DNP (10 μg/mL, Biosearch Technologies, D-5050-10, conjugation ration 13) in coating buffer (0.1 M Na₂CO₃/NaHCO₃PH 9.6) for 1 hour at 37° C. After every incubation, plates were washed three times with PBS/0.05% Tween 20. Plates were blocked with 100 μL/well PBS/1% BSA for 1 hour at 37° C. After washing, plates were incubated with 50 μL/well (bs) Abs diluted in PBS/0.05% Tween 20/1% BSA (PTB buffer) for 1 hour at 37° C. Next, 1 μg/mL FH (CompTech, A137) or C4BP (CompTech, A109) diluted in PTB buffer was added. FH was detected using goat anti-human FH (Quidel, A312) and HRP-labeled rabbit anti-goat Ig (Dako, P0449), and C4BP was detected using rabbit anti-human C4BP (kind gift from Anna M. Blom, Malmö, Sweden) and HRP-labeled goat anti-rabbit Ig (Dako, P0448), all diluted in PTB buffer. Plates were developed by incubating with 50 μL/well ABTS (Merck, A1888-5G) containing 1:2000 diluted H₂O₂ (Merck, 1072090250), and read at 415 nm using a microplate reader (BIO-RAD iMark). It was confirmed by ELISA that the bsAbs can bind to a specific target (e.g., DNP as a model antigen) as well as FH or C4BP, whereas the parental monospecific antibodies cannot (FIG. 1A)."}, "[3]": {"target": "T1, Complement Factor H protein", "experiment": "bispecific ELISA: BSA-DNP coat, antibody, then FH, FH detected", "experimental": "as §1"}, "[4]": {"target": "T2, C4b-binding protein", "experiment": "bispecific ELISA: BSA-DNP coat, antibody, then C4BP, C4BP detected", "experimental": "as §1"}}, "data": [{"binder": "B1", "values": [{"measurement": "binding result", "setting": "[1]", "value": "binds"}]}, {"binder": "B2", "values": [{"measurement": "binding result", "setting": "[2]", "value": "binds"}]}, {"binder": "B3", "values": [{"measurement": "binding result", "setting": "[3]", "value": "no binding (tested: 1 µg/mL FH)"}, {"measurement": "binding result", "setting": "[4]", "value": "no binding (tested: 1 µg/mL C4BP)"}]}]}
